We go through 15 molecules from PMC4832279, “Characterisation of Shigella Spa33 and Thermotoga FliM/N reveals a new model for C‐ring assembly in T3SS” (Molecular Microbiology, 2015).

Changes are numbered by the printed parent chain. In names and notes the source's numbering stands. Several values for one entry are separate records, joined by “and”; a condition that tells them apart may be missing. Equal values may be shown once.

The target of data set [1] is Spa33-FL(CTD) (construct comprising only SpoA1 and SpoA2 of Spa33-FL) (Shigella flexneri). Kind of data set: native MS; purified proteins or co-expressed, co-purified complexes, buffer-exchanged in 200 mM ammonium acetate pH 7.5; non-denaturing conditions; Synapt HDMS.
Data set [2] deals with Spa33-C (co-expressed from pRSFDuet-Spa33-C with Spa33-FL(CTD)) (Shigella flexneri) (UniProt P0A1K9). The data set is described as above.
Data set [3] concerns the target Spa33-C (expressed alone from pET28b-Spa33-C, tag removed, 15N-labelled) (Shigella flexneri) (UniProt P0A1K9). The data set is described as above.
Data set [4] has as its target Spa33-FL expressed from pETDuet-Spa33ΔRBS (N-terminal His-tag) (Shigella flexneri) (UniProt P0A1K9). The description is as above.
In data set [5] the target is Spa33-Cmbp (Spa33-C with a C-terminal maltose binding protein fusion) (Shigella flexneri) (UniProt P0A1K9). The data set is described as above.
In data set [6] the target is Spa33-Cstrep (Spa33-C with an eight residue C-terminal Strep-tag) (Shigella flexneri) (UniProt P0A1K9). The description is as above.
In data set [7] the target is Spa33-Ctrx (Spa33-C with a C-terminal thioredoxin fusion) (Shigella flexneri) (UniProt P0A1K9). The data set is described as above.
In data set [8] the target is Spa33-FL/C2 (1:2 complex of His-Spa33-FL and Spa33-C) (Shigella flexneri) (UniProt P0A1K9). The data set is described as above.
Data set [9] addresses Spa33-FL/C2(Y221R) (1:2 complex with Y221R in Spa33-FL and in both copies of Spa33-C) (Shigella flexneri) (UniProt P0A1K9). Described as above.
Data set [10] has as its target Spa33-FL/Cstrep2 (1:2 complex of Spa33-FL and Spa33-Cstrep) (Shigella flexneri) (UniProt P0A1K9). The description is as above.
For data set [11], the target named is Spa33-FL/Ctrx2 (1:2 complex of Spa33-FL and Spa33-Ctrx) (Shigella flexneri) (UniProt P0A1K9). The data set is described as above.
The target of data set [12] is Thermotoga maritima FliM with an N-terminal His-tag (Thermotoga maritima) (UniProt Q9WZE6). Described as above.
Sequence of Thermotoga maritima FliM with an N-terminal His-tag (Thermotoga maritima) (Q9WZE6 whole entry): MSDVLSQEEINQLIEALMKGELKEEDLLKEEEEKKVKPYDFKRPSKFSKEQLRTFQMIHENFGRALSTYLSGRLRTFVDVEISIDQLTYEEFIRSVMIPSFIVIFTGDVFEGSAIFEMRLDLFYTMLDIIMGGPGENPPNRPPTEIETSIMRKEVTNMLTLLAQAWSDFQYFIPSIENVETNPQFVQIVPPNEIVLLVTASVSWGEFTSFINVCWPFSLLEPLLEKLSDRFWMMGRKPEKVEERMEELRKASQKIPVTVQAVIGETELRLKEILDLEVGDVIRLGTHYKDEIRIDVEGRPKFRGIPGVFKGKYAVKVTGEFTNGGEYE
For data set [13], the target named is Thermotoga maritima FliN (C-terminal 132 residues of FliY) (Thermotoga maritima). The data set is described as above.
Data set [14] deals with the molecule itself. Kind of data set: crystal structure; 2.3 Å; 10 mg/ml Spa33 208-293, 21°C, sitting drop, 10% isopropanol, 0.1 M Na HEPES pH 7.0, 10% PEG 4000.
Data set [15] deals with the molecule itself. The data set is described as follows: native MS; purified proteins or co-expressed, co-purified complexes, buffer-exchanged in 200 mM ammonium acetate pH 7.5; non-denaturing conditions; Synapt HDMS.
Data set [16] addresses T1, Spa33-FL (full-length Spa33 with an N-terminal His-tag) (Shigella flexneri, UniProt P0A1K9 1-293).
T1 construct: Spa33 (SctQ), Shigella flexneri, full length; 293 residues by the printed range 192-293 at the extreme C-terminus; also called SctQ; His-Spa33-FL; source: E. coli B834 (DE3), from pET28b-Spa33, purified with Spa33-C (Ni-NTA, SEC)
T1 sequence: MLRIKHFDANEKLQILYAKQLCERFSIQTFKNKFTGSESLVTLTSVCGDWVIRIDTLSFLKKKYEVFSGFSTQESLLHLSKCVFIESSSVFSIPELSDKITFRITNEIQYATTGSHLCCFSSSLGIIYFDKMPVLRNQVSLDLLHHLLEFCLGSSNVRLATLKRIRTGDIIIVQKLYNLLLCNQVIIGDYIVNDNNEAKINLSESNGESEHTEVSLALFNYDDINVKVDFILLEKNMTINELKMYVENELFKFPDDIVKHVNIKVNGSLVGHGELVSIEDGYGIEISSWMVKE
The description is as above. The note with it: both partners purified.

For data set [17], the target named is T2, Spa33-FL(Y221R) with an N-terminal His-tag (Shigella flexneri, UniProt P0A1K9 1-293, Y221R).
T2 construct: Spa33 (SctQ), Shigella flexneri, full length, Y221R in the SpoA2 domain; also called Spa33-FL of Spa33-FL/C2(Y221R); source: E. coli B834 (DE3), from pET28b-Spa33(Y221R), purified with Spa33-C(Y221R) (Ni-NTA, SEC)
T2 sequence: T1 sequence with Y221R
Described as above. The note with it: both partners purified.

Consider “Spa33-C (co-expressed from pRSFDuet-Spa33-C with Spa33-FL(CTD)) (from UniProt P0A1K9 192-293) (domain or fragment)”, for which the stoichiometry N in data set [1] and in data set [2] was 2 each time.

For the molecule “Spa33-C (expressed alone from pET28b-Spa33-C, tag removed, 15N-labelled) (from UniProt P0A1K9 192-293) (domain or fragment)”, the stoichiometry N (commonly a count of units in the complex or per binding partner) in data set [3] turned out to be 2.

On to “Spa33-Cmbp (Spa33-C with a C-terminal maltose binding protein fusion) (from UniProt P0A1K9 192-293) (domain or fragment)”, for which the stoichiometry N in data set [4] and in [5] was 2 each time.

With “Spa33-Cstrep (Spa33-C with an eight residue C-terminal Strep-tag) (from UniProt P0A1K9 192-293) (domain or fragment)”, the stoichiometry N in data set [6] and in [4] was 2 each time.

For the molecule “Spa33-Ctrx (Spa33-C with a C-terminal thioredoxin fusion) (from UniProt P0A1K9 192-293) (domain or fragment)”, the stoichiometry N in [7] and in [4] was 2 in each case.

For “Spa33-FL(CTD) (construct comprising only SpoA1 and SpoA2 of Spa33-FL) (domain or fragment)”, the stoichiometry N in [1] is 2 and 3.

Take “Spa33-FL/C2 (1:2 complex of His-Spa33-FL and Spa33-C) (from UniProt P0A1K9 1-293; P0A1K9 192-293)”: the stoichiometry N in data set [8] is 2 and 4 and 6.

With “Spa33-FL/C2(Y221R) (1:2 complex with Y221R in Spa33-FL and in both copies of Spa33-C) (from UniProt P0A1K9 1-293; P0A1K9 192-293)”, the stoichiometry N in data set [9] came out at 2.

Take “Spa33-FL/Cstrep2 (1:2 complex of Spa33-FL and Spa33-Cstrep) (from UniProt P0A1K9 1-293; P0A1K9 192-293)”: in data set [10], the stoichiometry N is 2 and 4.

As to “Spa33-FL/Ctrx2 (1:2 complex of Spa33-FL and Spa33-Ctrx) (from UniProt P0A1K9 1-293; P0A1K9 192-293)”, the stoichiometry N in [11] is 2.

As to “Thermotoga maritima FliN (C-terminal 132 residues of FliY) (domain or fragment)”, the stoichiometry N in [12] was found to be 3; in [13], 2.

In turn, “Thermotoga maritima FliY, full length (natural protein)” registered a stoichiometry N in data set [12] of 1.

B1: Spa33 208-293 (C-terminal 86 residues of Spa33) (domain or fragment)
chain: ESEHTEVSLALFNYDDINVKVDFILLEKNMTINELKMYVENELFKFPDDIVKHVNIKVNGSLVGHGELVSIEDGYGIEISSWMVKE
notes: Spa33 (SctQ), Shigella flexneri, residues 208-293; Two copies of the dimer in the asymmetric unit; also called SpoA2 domain of Spa33; source: E. coli B834 (DE3), purified (Ni-NTA, carboxypeptidase A, SEC); not shown: His tag, C-terminal, cleaved
For B1, the binding result in data set [14] was “binds”.

B2: Spa33-C (alternative translation product of spa33, residues 192-293) (domain or fragment)
chain: MNDNNEAKINLSESNGESEHTEVSLALFNYDDINVKVDFILLEKNMTINELKMYVENELFKFPDDIVKHVNIKVNGSLVGHGELVSIEDGYGIEISSWMVKE
modifications: formylmethionine at the N-terminus (expected from the measured mass)
notes: Spa33 (SctQ), Shigella flexneri, residues 192-293; translated from an internal GTG start codon; Forms a homodimer (Spa33-C2) in the native mass spectrum; also called short variant of Spa33; source: E. coli B834 (DE3), made from the internal start site of pET28b-Spa33, co-purified with His-Spa33-FL (Ni-NTA, SEC)
Turning to B2, the “stoichiometry N” value in data set [15] and in data set [16] was 2 each time.

B3: Spa33-C(Y221R) (domain or fragment)
chain: B2 chain with Y30R
modifications: formylmethionine at the N-terminus (as told for wild-type Spa33-C)
notes: Spa33 (SctQ), Shigella flexneri, residues 192-293 (Spa33-C), Y221R; also called Spa33-C of Spa33-FL/C2(Y221R)
Take B3: the “stoichiometry N” value in [17] came to 2.
